Experiment [1] deals with T1, human-derived transmembrane HB-EGF protein (wild type HB-EGF) (human, UniProt Q99075 20-208).
T1 construct: also called human HB-EGF protein; cell surface HB-EGF
In words: flow cytometry with 293T culture supernatant as primary antibody (the FIG. 11 legend says ELISA). The protocol:
The reactivity of the 35-1 chimeric antibody or the 35-1 humanized antibody with HB-EGF was evaluated by the flow cytometry.
The antibody concentration in the culture supernatant was calculated according to a sandwich ELISA method. […] After the plate was washed with 0.05% Tween 20-PBS, an HRP-labeled goat anti-mouse IgG (manufactured by MBL Co., Ltd., code number: 330) having been diluted to 1/10000 was added as a detection antibody in an amount of 50 μL/well and left to stand at room temperature for 1 hour. After the plate was washed with 0.05% Tween 20-PBS, a color developing solution was added thereto in an amount of 50 μL/well and left to stand at room temperature for 20 minutes to develop a color. The color development was terminated by adding 1 M phosphoric acid in an amount of 50 μL/well. Then, the absorbance at 450 nm was measured with a plate reader. Regarding the antibody concentration in the culture supernatant, a standard curve was created based on measured values obtained by serially diluting the antibody solution of a known concentration, and the antibody concentration was calculated from the measured values of the culture supernatant.
(Flow cytometry measures light scatter and fluorescence of single cells or particles in a stream.)

The target of experiment [2] is T1, human-derived transmembrane HB-EGF …. Briefly: flow cytometry on HB-EGF-expressing cells (summary of the selection).
Another experiment deals with mutant HB-EGF I117A (human, UniProt Q99075 20-208). Briefly: flow cytometry on 293T cells transiently expressing the mutant, antibody 5 µg/mL. The protocol: (§1) First, prepared were cells expressing amino acid point mutant HB-EGF to be subjected to the flow cytometry. To be more specific, genes encoding mutant HB-EGF shown in Table 1 were prepared by site-directed mutagenesis using the HB-EGF-pQCxmhIPG as a template. The obtained mutant HB-EGF genes were each inserted into an animal cell expression vector pQCxmhIPG to prepare a vector encoding each mutant HB-EGF. […] Thus, cells expressing amino acid point mutant HB-EGF were prepared.
(§2) Next, each of the anti-HB-EGF antibodies (5 μg/mL) and a secondary antibody (manufactured by Beckman Coulter, Inc., catalog number: IM0855, this antibody was diluted to 1/200 for use)) were allowed to react with the cells expressing the wild type HB-EGF or each mutant HB-EGF, and the mean fluorescence intensity was analyzed by the flow cytometry. […] Then, based on the obtained mean fluorescence intensity (antibody reactivity), the binding strength (relative value) of each anti-HB-EGF antibody to each mutant HB-EGF was calculated according to the following formula (Formula *).

For the next experiment, the target named is mutant HB-EGF F115A (human, UniProt Q99075 20-208). The description is as above. The protocol:
as §1, §2

The values that follow come from patent US20160083464A1 (MEDICAL AND BIOLOGICAL LABORATORIES, published 2016).

T1 sequence (Q99075 20-208): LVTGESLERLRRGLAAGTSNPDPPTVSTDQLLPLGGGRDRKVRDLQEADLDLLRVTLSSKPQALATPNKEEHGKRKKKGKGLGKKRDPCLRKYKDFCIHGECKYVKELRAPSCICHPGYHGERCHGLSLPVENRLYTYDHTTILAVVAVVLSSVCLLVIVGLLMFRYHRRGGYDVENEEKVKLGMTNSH
Sequence of mutant HB-EGF F115A (Q99075 20-208 F115A): as the sequence (Q99075 20-208) above, with F96A counted along it
Sequence of mutant HB-EGF I117A (Q99075 20-208 I117A): as the sequence (Q99075 20-208) above, with I98A counted along it

B1: 35-1 humanized antibody (antibody, V domains shown)
VH: QVQLVQSGAEVVKPGSSVKVSCKASGYSFSGYYMHWVKQAPGQGLEWIGEINPSTGGITYNQKFKAKATLTVDRSTSTAYMELKSLTSEDTAVYYCTRITWAFAYWGQGTTVTVSS
VL: QIVLTQSPTTMAASPGEKITITCSASSSVTYMYWYQQRPGFSPKLLIYDTSNLASGVPVRFSGSGSGTSYSLTIGTMEAEDVATYYCQQWSSYPPTFGGGTKLEIK
notes: CDR-grafted variable regions in a Lonza human IgG1 vector (human IgG1 constant region); also called humanized 35-1 antibody
Take B1: in experiment [1], the binding result is “binds”.

B2: 35-1 antibody (antibody, mouse IgG1, V domains shown)
VH: EVQLQQSGPELVKPRASVKISCKASGYSFSGYYMHWVKQSPEKSLEWIGEINPSTGGITYNQKFKAKATLTVDRSSSTAYMQLKSLTSEDSAVYYCTRITWAFAYWGQGTLVTVSA
VL: QIVLTQSPAIMSASPGEKVTMTCSASSSVTYMYWYQQKPGSSPRLLIYDTSNLASGVPVRFSGSGSGTSYSLTISRMEAEDAATYYCQQWSSYPPTFGGGTKLEIK
notes: Variable genes were amplified with mouse IgG1 CH1 and kappa constant region primers
Regarding B2, the binding result (in experiment [2]; with mutant HB-EGF I117A; with mutant HB-EGF F115A) was “binds” throughout.

B3: 35-1 chimeric antibody (antibody, V domains shown)
VH: EVQLQQSGPELVKPRASVKISCKASGYSFSGYYMHWVKQSPEKSLEWIGEINPSTGGITYNQKFKAKATLTVDRSSSTAYMQLKSLTSEDSAVYYCTRITWAFAYWGQGTLVTVSA
VL: QIVLTQSPAIMSASPGEKVTMTCSASSSVTYMYWYQQKPGSSPRLLIYDTSNLASGVPVRFSGSGSGTSYSLTISRMEAEDAATYYCQQWSSYPPTFGGGTKLEIK
notes: Variable regions of the 35-1 antibody in Lonza human IgG1 antibody producing vectors (human IgG1 constant region); also called chimerized 35-1 antibody
As to B3, the binding result in experiment [1] is “binds”.

B4: 292 antibody (antibody, mouse IgG1, V domains shown)
VH: EVQLQQSGPELVKPGASVKISCKASGYSFTGYYMHWVKQSPEKSLEWIGEINPSTGGTTYNQKFKAKATLTLDKSSSTAYMQLKSLTSEDSAVYYCAKSPYWDGAYWGQGTLVTVSA
VL: QIVLTQSPAIMSASPGEKVTMTCSASSSISYMYWYQQRPGSSPRLLIYDTSNLASGVPVRFSGSGSGTSHSLTISRMEAEDAATYYCQQWSSYPSTFGGGTKLEIK
notes: as for B2
As to B4, the binding result (in experiment [2]; with mutant HB-EGF I117A; with mutant HB-EGF F115A) was “binds” in each case.
